The assay has as its target T1, GDNFRα (full length, GPI-linked, expressed on cells) (rat, UniProt Q62997 25-430).
T1 construct: also called GDNF receptor α; recombinant GDNFRα
T1 sequence: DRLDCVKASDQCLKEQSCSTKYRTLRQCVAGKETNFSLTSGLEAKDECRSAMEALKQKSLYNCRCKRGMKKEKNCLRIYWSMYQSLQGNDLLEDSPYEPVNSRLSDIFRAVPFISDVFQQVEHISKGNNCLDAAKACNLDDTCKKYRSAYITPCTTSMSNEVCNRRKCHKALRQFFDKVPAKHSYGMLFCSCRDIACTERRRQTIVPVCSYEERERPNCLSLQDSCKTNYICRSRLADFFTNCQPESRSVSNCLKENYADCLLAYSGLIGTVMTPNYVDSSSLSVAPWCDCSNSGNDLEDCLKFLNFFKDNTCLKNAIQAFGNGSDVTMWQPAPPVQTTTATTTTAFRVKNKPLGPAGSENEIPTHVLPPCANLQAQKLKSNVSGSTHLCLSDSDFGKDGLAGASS
The assay is described as follows: competition binding of 50 pM 125I GDNF against cold GDNF on CHO cells stably expressing GDNFRα; Scatchard analysis, IGOR program. An excerpt: Competition binding experiments further indicate that GDNF binds specifically and reversibly to GDNFRα expressing cells. […] The IGOR program was used to determine K_d.

B1: GDNF (Glial-cell Derived Neurotrophic Factor) (ligand)
chain: SPDKQMAVLPRRERNRQAAAANPENSRGKGRRGQRGKNRGCVLTAIHLNVTDLGLGYETKEELIFRYCSGSCDAAETTYDKILKNLSRNRRLVSDKVGQACCRPIAFDDDLSFLDDNLVYHILRKHSAKRCGCI
modifications: The tracer form is 125I-iodinated, and the iodinated residues are not stated. Per our card (not shown to me), active GDNF is a disulfide-bonded homodimer; one protomer is given.
As a reminder, the Kd is the concentration at which binding is half-saturated. Low values mean higher affinity, high ones lower affinity. For B1, the Kd was about 0.063 nM.

The values are drawn from patent US7105484 (Genentech, dated 2006).
